B1: D-5-b6a/-12 (-8A to G) (dsDNA)
DNA 1: TGTTACCTTTTGTGTAGATTTTCGTCTGTAAAGGTG
DNA 2: CGAAAATCTACACAAAAGGTAACA
B2: D-5-b7t/-12 (-7T to G) (dsDNA)
DNA 1: TGTTACCTTTTGTGTAGATTTTCGTCTAGAAAGGTG
DNA 2: CGAAAATCTACACAAAAGGTAACA
B3: T+1/B-12 (dsDNA)
DNA 1: GGTATTGTTACCTTTTGTGTAGATTTTCGTCTATAAAGGTG
DNA 2: CGAAAATCTACACAAAAGGTAACAATACC
B4: D-5-b8a/-12 (-6A to G) (dsDNA)
DNA 1: TGTTACCTTTTGTGTAGATTTTCGTCTATGAAGGTG
DNA 2: CGAAAATCTACACAAAAGGTAACA
B5: D-5-BM3 (-9TA-8 to CC) (dsDNA)
DNA 1: TGTTACCTTTTGTGTAGATTTTCGTCCCTAAAGGTG
DNA 2: CGAAAATCTACACAAAAGGTAACA
B6: D-5-BM4 (-9TATA-6 to CCCC) (dsDNA)
DNA 1: TGTTACCTTTTGTGTAGATTTTCGTCCCCCAAGGTG
DNA 2: CGAAAATCTACACAAAAGGTAACA
B7: D-5-B2G (-12G to T) (dsDNA)
DNA 1: TGTTACCTTTTGTGTAGATTTTCTTCTATAAAGGTG
DNA 2: AGAAAATCTACACAAAAGGTAACA
B8: D-5/-10 (dsDNA)
DNA 1: TGTTACCTTTTGTGTAGATTTTCGTCTATAAAGGTG
DNA 2: GACGAAAATCTACACAAAAGGTAACA

How the values were obtained:
Tt-RpoE1 [1] = molecular target: T1, Tt-RpoE1 (Thermoanaerobacter tengcongensis MB4T, UniProt Q8RCT7 1-162); assay: EMSA; 5 uM protein; little effect; 50 mM Tris-HCl pH 8.0, 10 mM MgAc2, 30 mM NaCl, 1 mM DTT, 5% glycerol, 30 ug/ml BSA, 0.5 mM EDTA, 1 ug poly(dI-dC), 20 fmol probe in 20 ul, 25 C, 20 min; settings: protein: recombinant; tags: His (pET28a); label: 5'-32P top strand; fork: top 3' overhang 12 nt
T1 sequence: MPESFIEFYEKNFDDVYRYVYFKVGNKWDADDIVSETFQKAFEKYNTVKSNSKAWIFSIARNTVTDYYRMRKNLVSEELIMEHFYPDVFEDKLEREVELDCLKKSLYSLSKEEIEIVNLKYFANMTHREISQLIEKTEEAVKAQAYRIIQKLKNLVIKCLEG

Tt-RpoE1 [2] = molecular target: T1, Tt-RpoE1; assay: EMSA; 5 uM protein; strongest; 50 mM Tris-HCl pH 8.0, 10 mM MgAc2, 30 mM NaCl, 1 mM DTT, 5% glycerol, 30 ug/ml BSA, 0.5 mM EDTA, 1 ug poly(dI-dC), 20 fmol probe in 20 ul, 25 C, 20 min; settings: protein: recombinant; tags: His (pET28a); label: 5'-32P top strand; fork: top 3' overhang 12 nt
Tt-RpoE1 D66A = molecular target: T2, Tt-RpoE1 D66A (Thermoanaerobacter tengcongensis MB4T, UniProt Q8RCT7 1-162, D66A); assay: EMSA; 5 uM protein; D66A cures -12G defect; 50 mM Tris-HCl pH 8.0, 10 mM MgAc2, 30 mM NaCl, 1 mM DTT, 5% glycerol, 30 ug/ml BSA, 0.5 mM EDTA, 1 ug poly(dI-dC), 20 fmol probe in 20 ul, 25 C, 20 min; settings: protein: recombinant; tags: His (pET28a); label: 5'-32P top strand; fork: top 3' overhang 12 nt
T2 sequence: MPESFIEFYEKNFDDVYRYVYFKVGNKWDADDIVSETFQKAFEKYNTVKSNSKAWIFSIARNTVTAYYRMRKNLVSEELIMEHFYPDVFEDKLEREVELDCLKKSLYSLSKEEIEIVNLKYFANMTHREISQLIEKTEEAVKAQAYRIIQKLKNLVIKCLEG

Tt-RpoE1 [3] = molecular target: T1, Tt-RpoE1; assay: EMSA; 5 uM protein; 50 mM Tris-HCl pH 8.0, 10 mM MgAc2, 30 mM NaCl, 1 mM DTT, 5% glycerol, 30 ug/ml BSA, 0.5 mM EDTA, 1 ug poly(dI-dC), 20 fmol probe in 20 ul, 25 C, 20 min; settings: protein: recombinant; tags: His (pET28a); label: 5'-32P top strand; fork: top 3' overhang 10 nt

Binder	binding result (Tt-RpoE1 [1])	also measured
B1	binds	–
B2	binds	–
B3	–	binding result (Tt-RpoE1 [2]): binds
B4	binds	–
B5	binds	–
B6	binds	–
B7	–	binding result (Tt-RpoE1 D66A): binds
B8	–	binding result (Tt-RpoE1 [3]): binds

— PMC3397946, “Identification and Characterization of the Cognate Anti-Sigma Factor and Specific Promoter Elements of a T. tengcongensis ECF Sigma Factor”
